Molecular target: EGFR on cells (H322M) (human), P00533
Experiment: cell-based or functional assay

B1: humanized <EGFR>ICR62 (antibody, V domains shown)
VH: QVQLVQSGAEVKKPGSSVKVSCKASGFTFTDYKIHWVRQAPGQGLEWMGYFNPNSGYSTYAQKFQGRVTITADKSTSTAYMELSSLRSEDTAVYYCARLSPGGYYVMDAWGQGTTVTVSS
VL: DIQMTQSPSSLSASVGDRVTITCRASQGINNYLNWYQQKPGKAPKRLIYNTNNLQTGVPSRFSGSGSGTEFTLTISSLQPEDFATYYCLQHNSFPTFGQGTKLEIKRT
reduction of cell growth, H322M spheroids, 7 days, 100 nM, Celltiter Glow: 77%

— patent publication US20100256338A1
